Experimental data from patent US20230002480A1.

Key:
Assay in all cases: cell-based or functional assay
[1] = target: HIV-1 Env of pseudovirus CNE20 (HIV-1)
[2] = target: HIV-1 Env of pseudovirus Ce0682_E4 (HIV-1)
[3] = target: HIV-1 Env of pseudovirus Q842.d12 (HIV-1)
[4] = target: HIV-1 Env of pseudovirus CAP45.2.00.G3 (HIV-1)
[5] = target: HIV-1 Env of pseudovirus ZM109F.PB4 (HIV-1)
[6] = target: HIV-1 Env of pseudovirus SC422661.8 (HIV-1)
[7] = target: HIV-1 Env of pseudovirus 1394C9G1(Rev-) (HIV-1)
[8] = target: HIV-1 Env of pseudovirus CNE58 (HIV-1)
[9] = target: HIV-1 Env of pseudovirus Du422.1 (HIV-1)
[10] = target: HIV-1 Env of pseudovirus 62357_14_D3_4589 (HIV-1)
[11] = target: HIV-1 Env of pseudovirus ZM214M.PL15 (HIV-1)
[12] = target: HIV-1 Env of pseudovirus Du172.17 (HIV-1)
[13] = target: HIV-1 Env of pseudovirus 6244_13_B5_4576 (HIV-1)
[14] = target: HIV-1 Env of pseudovirus Du156.12 (HIV-1)
[15] = target: HIV-1 Env of pseudovirus THRO4156.18 (HIV-1)
[16] = target: HIV-1 Env of pseudovirus CNE30 (HIV-1)
[17] = target: HIV-1 Env of pseudovirus 1054_07_TC4_1499 (HIV-1)
[18] = target: HIV-1 Env of pseudovirus Ce2010_F5 (HIV-1)
[19] = target: HIV-1 Env of pseudovirus 246F C1G (HIV-1)

With N49P9 (antibody) the IC50 [1] was 0.465 µg/mL, the IC80 [1] was 2.43 µg/mL and the MPI [1] was 97. The IC50 [2] was 0.049 µg/mL, the IC80 [2] was 0.185 µg/mL and the MPI [2] was 100. It also gave an IC50 [3] of 0.019 µg/mL, an IC80 [3] of 0.057 µg/mL and an MPI [3] of 100. It also gave an IC50 [4] of 0.294 µg/mL, an IC80 [4] of 1.99 µg/mL and an MPI [4] of 98. For the same substance, the IC50 [5] was 0.075 µg/mL, the IC80 [5] was 0.349 µg/mL and the MPI [5] was 99. The IC50 [6] was 0.241 µg/mL, the IC80 [6] was 0.691 µg/mL and the MPI [6] was 100. For the same substance, the IC50 [7] was greater than 50 µg/mL, the IC80 [7] was greater than 50 µg/mL and the MPI [7] was 40. For the same substance, the IC50 [8] was 0.03 µg/mL, the IC80 [8] was 0.081 µg/mL and the MPI [8] was 100. For the same substance, the IC50 [9] was greater than 50 µg/mL, the IC80 [9] was greater than 50 µg/mL and the MPI [9] was 17. It also gave an IC50 [10] of 0.074 µg/mL, an IC80 [10] of 0.307 µg/mL and an MPI [10] of 100. For the same substance, the IC50 [11] was 0.477 µg/mL, the IC80 [11] was 1.99 µg/mL and the MPI [11] was 100. The IC50 [12] was 0.023 µg/mL, the IC80 [12] was 0.178 µg/mL and the MPI [12] was 100. It also gave an IC50 [13] of 0.132 µg/mL, an IC80 [13] of 0.366 µg/mL and an MPI [13] of 100. For the same substance, the IC50 [14] was 0.043 µg/mL, the IC80 [14] was 0.13 µg/mL and the MPI [14] was 100. The IC50 [15] was 1.41 µg/mL, the IC80 [15] was 8.21 µg/mL and the MPI [15] was 99. It also gave an IC50 [16] of 0.259 µg/mL, an IC80 [16] of 0.693 µg/mL and an MPI [16] of 100. The IC50 [17] was 0.885 µg/mL, the IC80 [17] was 2.44 µg/mL and the MPI [17] was 100. It also gave an IC50 [18] of 0.089 µg/mL, an IC80 [18] of 0.271 µg/mL and an MPI [18] of 100. The IC50 [19] was greater than 50 µg/mL, the IC80 [19] was greater than 50 µg/mL and the MPI [19] was 48.
For N49P9.1 (antibody), the IC50 [1] was 1.51 µg/mL, the IC80 [1] was 16.4 µg/mL and the MPI [1] was 90. For the same substance, the IC50 [2] was 0.076 µg/mL, the IC80 [2] was 0.264 µg/mL and the MPI [2] was 100. It also gave an IC50 [3] of 0.027 µg/mL, an IC80 [3] of 0.075 µg/mL and an MPI [3] of 100. It also gave an IC50 [4] of 1.72 µg/mL, an IC80 [4] of 19.6 µg/mL and an MPI [4] of 88. The IC50 [5] was 0.116 µg/mL, the IC80 [5] was 0.497 µg/mL and the MPI [5] was 95. It also gave an IC50 [6] of 0.127 µg/mL, an IC80 [6] of 0.468 µg/mL and an MPI [6] of 100. For the same substance, the IC50 [7] was greater than 50 µg/mL, the IC80 [7] was greater than 50 µg/mL and the MPI [7] was 6. It also gave an IC50 [8] of 0.027 µg/mL, an IC80 [8] of 0.074 µg/mL and an MPI [8] of 100. It also gave an IC50 [9] greater than 50 µg/mL, an IC80 [9] greater than 50 µg/mL and an MPI [9] of 17. The IC50 [10] was 0.227 µg/mL, the IC80 [10] was 1.09 µg/mL and the MPI [10] was 99. The IC50 [11] was 0.561 µg/mL, the IC80 [11] was 2.96 µg/mL and the MPI [11] was 100. The IC50 [12] was 0.026 µg/mL, the IC80 [12] was 0.182 µg/mL and the MPI [12] was 100. For the same substance, the IC50 [13] was 0.343 µg/mL, the IC80 [13] was 1.5 µg/mL and the MPI [13] was 100. It also gave an IC50 [14] of 0.066 µg/mL, an IC80 [14] of 0.252 µg/mL and an MPI [14] of 100. It also gave an IC50 [15] of 1.65 µg/mL, an IC80 [15] of 9.44 µg/mL and an MPI [15] of 99. It also gave an IC50 [16] of 0.271 µg/mL, an IC80 [16] of 0.971 µg/mL and an MPI [16] of 100. It also gave an IC50 [17] of 1.8 µg/mL, an IC80 [17] of 7.2 µg/mL and an MPI [17] of 100. It also gave an IC50 [18] of 0.12 µg/mL, an IC80 [18] of 0.38 µg/mL and an MPI [18] of 100. It also gave an IC50 [19] greater than 50 µg/mL, an IC80 [19] greater than 50 µg/mL and an MPI [19] of 11.
